# In patent US20250206836A1:
# Molecular target: C1q human protein (human) (UniProt P02745)
# Test: ELISA, plates coated with the antibody, C1q human protein titrated (the concentration axis is that of C1q), Mean Absorbance (OD Units)
# Sequence of C1q human protein (human) (P02745 23-245 limits assumed, chain 1 of 3): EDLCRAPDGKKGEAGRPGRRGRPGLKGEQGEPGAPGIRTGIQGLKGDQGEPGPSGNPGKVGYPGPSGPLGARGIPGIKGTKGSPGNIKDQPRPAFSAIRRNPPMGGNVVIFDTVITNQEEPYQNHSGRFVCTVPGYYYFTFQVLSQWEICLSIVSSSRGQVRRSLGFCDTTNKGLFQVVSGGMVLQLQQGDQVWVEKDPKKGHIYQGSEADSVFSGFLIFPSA
# Sequence of C1q human protein (human) (P02746 28-253 limits assumed, chain 2 of 3, further chain): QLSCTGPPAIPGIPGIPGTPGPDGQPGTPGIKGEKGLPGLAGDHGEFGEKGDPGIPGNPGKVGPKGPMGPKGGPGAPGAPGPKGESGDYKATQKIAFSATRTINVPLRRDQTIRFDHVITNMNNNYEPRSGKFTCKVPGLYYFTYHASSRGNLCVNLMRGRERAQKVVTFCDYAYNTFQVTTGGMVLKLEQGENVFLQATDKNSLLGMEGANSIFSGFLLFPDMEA
# Sequence of C1q human protein (human) (P02747 29-245 limits assumed, chain 3 of 3, further chain): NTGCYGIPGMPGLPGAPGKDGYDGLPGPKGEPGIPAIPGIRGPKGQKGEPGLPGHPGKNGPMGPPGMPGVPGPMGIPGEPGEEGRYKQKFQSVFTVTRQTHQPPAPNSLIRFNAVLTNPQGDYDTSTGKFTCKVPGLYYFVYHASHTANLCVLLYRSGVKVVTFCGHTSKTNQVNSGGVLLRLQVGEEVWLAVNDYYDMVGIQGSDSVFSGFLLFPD
substance,measurement,value
Remicade (pos. control) (antibody),EC50 (read off the curve),20 µg/mL
